Data taken from patent US20190202914A1 (HARBOUR BIOMED SHANGHAI, published 2019).
One block for each binder: values may come before it.

Columns and labels:
[1] = molecular target: T1, Recombinant human CTLA-4-his protein (CT4-H5229, Acro Bio) (human, UniProt P16410 36-161); assay: ELISA of 293 supernatants on coated human CTLA4-his
T1 construct: extracellular domain; Bought protein; also called Human CTLA-4^ECD-his; not shown: his tag
T1 sequence (looked up): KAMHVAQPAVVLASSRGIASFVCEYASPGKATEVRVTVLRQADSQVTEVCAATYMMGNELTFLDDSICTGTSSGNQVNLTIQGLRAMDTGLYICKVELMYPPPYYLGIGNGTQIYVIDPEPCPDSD

[2] = molecular target: T2, cyno CTLA-4 expressed on 293 cells (293-cynoCTLA-4 cells) (cyno, UniProt G7PL88 36-223); assay: flow cytometry (MFI) on 293 cells expressing cynomolgus CTLA-4, Alexa 488 anti-human (H+L) detection
T2 construct: also called cynomolgus CTLA-4
T2 sequence: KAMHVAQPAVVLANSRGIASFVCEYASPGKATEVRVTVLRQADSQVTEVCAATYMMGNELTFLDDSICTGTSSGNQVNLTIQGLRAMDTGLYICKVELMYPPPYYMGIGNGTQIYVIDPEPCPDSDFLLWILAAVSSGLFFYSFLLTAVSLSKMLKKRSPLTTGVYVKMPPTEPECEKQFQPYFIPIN
Experimental: (§1) The culture medium was aspirated, and the cells were washed twice with HBSS (Hanks Balanced Salt Solution, Invitrogen). The cells were treated with enzyme-free cell dissociation solution (Versene solution, Invitrogen) and collected. The cells were then washed twice with HBSS, cell counts were determined, and cells were resuspended with HBSS at 2×10⁶ cells/mL. BSA was added to the cell suspension to a final concentration of 1%, and the cells were blocked for 30 minutes on ice and then washed twice with HBSS. The cells were collected after centrifugation and resuspended in FACS buffer (HBSS+1% BSA, v/v) at 2×10⁶ cells/mL. 100 μL of the cell suspension were then added to each well of a 96-well plate. 100 μL of purified anti-CTLA-4 antibodies from Example 2 or control antibodies were added to each well of the 96-well plate and incubated for 1 hour on ice, wherein the heavy chain and light chain of the Ipilimumab analogue had amino acid sequences of SEQ ID NO.: 199 and SEQ ID NO.: 200, respectively. Cells were washed twice with FACS buffer, and 100 μL of Alexa 488-labeled anti-human (H+L) antibody (Invitrogen) were added to the 96-well plate and incubated for 1 hour on ice. The samples were washed three times with FACS buffer, and 100 μL of fixation buffer (containing 4% paraformaldehyde, v/v) were added to each well and incubated for 10 minutes. The cells were then washed twice with FACS buffer and resuspended in 100 μL of FACS buffer.

[3] = molecular target: T3, human CTLA-4 expressed on cells (293-hCTLA-4 cells; CTLA-4-expressing CHO-K1 cells) (human, UniProt P16410 36-223); assay: flow cytometry (MFI) on 293 cells expressing human CTLA-4, Alexa 488 anti-human (H+L) detection
T3 construct: also called CD152; cell-expressed CTLA-4
T3 sequence: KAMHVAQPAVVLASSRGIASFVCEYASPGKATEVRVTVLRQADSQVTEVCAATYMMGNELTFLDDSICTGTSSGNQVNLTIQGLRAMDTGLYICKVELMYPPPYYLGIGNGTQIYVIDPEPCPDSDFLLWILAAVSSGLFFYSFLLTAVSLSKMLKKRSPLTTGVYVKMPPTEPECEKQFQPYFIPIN
Experimental: as §1

[4] = molecular target: T4, Recombinant mouse CTLA4-his protein (CT4-M52H5, Acro Bio) (mouse, UniProt P09793 36-161); assay: ELISA on coated recombinant mouse CTLA4-his, HRP anti-human IgG (H+L), OD450
T4 construct: Bought protein; also called murine CTLA-4; not shown: his tag
Experimental: Recombinant human or mouse CTLA4-his protein (CT4-H5229 for human protein, CT4-M52H5 for mouse protein, Acro Bio) was diluted in PBS to a concentration of 2 μg/mL, and 100 μL of the diluted CTLA-4-his protein was added per well to ELISA microplates, which were incubated overnight at 4° C. to coat the plates with the recombinant proteins. The plates were then blocked with ELISA blocking solution (containing 2% BSA, 0.05% (v/v) Tween-20, pH7.4 PBS buffer, w/v) at 37° C. for two hours and then incubated with anti-CTLA-4 antibodies with various concentrations for 1 hour at 37° C. The plates were washed and incubated with horseradish peroxidase (HRP) conjugated goat anti-human IgG (H+L) antibody (A18805, Life technologies) at 37° C. for one hour. 100 μL of tetramethylbenzidine (TMB) were added, and the plates were incubated at room temperature for 15 minutes. 50 μL of 1N HCl were added to terminate the reaction, and the OD450 nm was determined by an ELISA plate reader.

[5] = molecular target: T3, human CTLA-4 expressed on cells …; assay: cell-based blocking assay, flow cytometry: % blocking of biotinylated B7.1 ECD-Fc binding to 293-hCTLA-4 cells
Experimental: Cell-Based Receptor-Ligand Binding assay was performed to determine the ability of the anti-CTLA-4 antibodies to block the binding of CTLA-4 to its ligands B7.1. Recombinant B7.1^ECD-Fc protein (B71-H5259, Acro Bio) was biotinylated using EZ-LINK NHS-PEG12-Biotin (Thermo Scientific#21312) according to the manufacturer's instruction. Biotinylated B7.1^ECD-Fc protein was concentrated and free label removed by using Amicon centrifugal filter (10 kDa cut off). The extracellular domain of B7.1 corresponded to amino acids Val35-Asn242 of Uniprot database protein P33681.
The culture medium was aspirated, and the cells were washed twice with PBS. The cells were treated with enzyme-free cell dissociation solution (Versene solution, Invitrogen) and collected. Dissociation solution was neutralized by the addition of 8 mL of culture medium, and cell counts were determined. Cells were centrifuged at 300 g for 5 minutes and resuspended in blocking buffer (containing 2% BSA, pH 7.4 PBS buffer, w/v) at 1×10⁶ cells/mL. The cells were blocked for 15 minutes at 37° C. Meanwhile, the wells of 96-well round-bottom plates were blocked with 200 μL of blocking buffer for 1 hour at 37° C. The blocking buffer was discarded, and 200 μL of cells were dispensed to each well of the 96-well plates (2×10⁵ cells/well). The plates were centrifuged at 500 g for 5 minutes, and the supernatants were discarded. The cells were resuspended in 100 μL of anti-CTLA-4 antibodies prepared in blocking buffer with varying concentrations. 100 μL of biotinylated B7.1 ECD-Fc (60 μg/mL in blocking buffer) were added to each well of 96-well plate and mixed by shaking gently. The plates were incubated at 4° C. for 90 minutes and washed twice with 200 μL blocking buffer. The blocking buffer was discarded, and the cells were resuspended in 100 μL of streptavidin-Alexa 488 solution (Invitrogen, 1:500 in blocking buffer) and incubated at 4° C. for 1 hour. The plates were washed three times with blocking buffer and added with 200 μL of blocking buffer.
The mean fluorescence intensity (MFI) was determined using FACS Calibur (BD).

[6] = molecular target: T3, human CTLA-4 expressed on cells …; assay: flow cytometry on 293F-hCTLA-4 cells

binding result [1]: binds
B1: CL20 (antibody, human IgG1, V domains shown)
VH: EVQLVESGGGLVQPGGSLRLSCAASGFTFSNYWMHWVRQAPGKGLVWVSRINSDGSNTTYADSVKGRFTISRDNAKNTLYLQMNSLRAEDTAVYYCARWFGEHYYGMDVWGQGTTVTVSS
notes: Human heavy-chain-only antibody (HCAb): two heavy chains, no light chain

EC50 (read off the curve) [2]: ~1 nM
EC50 (read off the curve) [3]: ~2 nM
binding result [4]: no binding (tested: 533.3 nM)
B2: CL24 (antibody, human IgG1, V domains shown)
VH: EVQLVETGGGLIQPGGSLRLSCAASGLNVSRHYLSWVRQAPGKGLEWVAVIYSGGGIEYVDSVKGRFTISRDNANNTLYLQMRSLRTEDSAVYYCARAIPRPHGSDIWGQGTMVTVSS
notes: as for B1

EC50 (read off the curve) [2]: ~1 nM
EC50 (read off the curve) [3]: ~2 nM
IC50 (read off the curve) [5]: 10 to 20 nM
binding result [4]: no binding (tested: 325.5 nM)
B3: CL11 (antibody, human IgG1, V domains shown)
VH: EVQLEETGGDLIQPGGSLRLSCTASGFNVSRIYMSWVRQAPGKGLEWVSVIYSGGSIYYADSVRGRFTISRDSSTNTVFLQMNSLRAEDSAVYYCARAVPSAPSSFDIWGQGTMVTVSS
notes: Human heavy-chain-only antibody (HCAb): two heavy chains, no light chain; also called clone 11

binding result [6]: binds
B4: CL11-dPTM (antibody, human IgG1, V domains shown)
VH: EVQLEETGGDLIQPGGSLRLSCTASGFTVSRIYMSWVRQAPGKGLEWVSVIYSGGSIYYADSVRGRFTISRDSSTNTVFLQMNSLRAEDSAVYYCARAVPSAPSSFDIWGQGTMVTVSS
notes: HCAb variant with PTM removal

binding result [6]: binds
B5: CL30-dPTM (antibody, human IgG1, V domains shown)
VH: EVQLEETGGDLIQPGGSLRLSCTASGFTVSRIYMSWVRQAPGKGLEWVSVIYSGGSIYYADSVRGRFTISRDSSTNTVYLQMNSLRAEDSAVYYCARAVPHAPSNFDKWGQGTRVTVSS
notes: HCAb variant with PTM removal

binding result [6]: binds
B6: CL22-dPTM′ (antibody, human IgG1, V domains shown)
VH: EVQLVESGGGLIQPGGSLRLSCAASGFTVRNNYMSWVRQAPGKGLEWVSVIYSGGSITYADSVKGRFTISRDNSKNTLYLQMNSLRAEDTAVYYCARAVPHAPSAFDIWGQGTMVTVSS
notes: HCAb variant with PTM removal

binding result [6]: binds
B7: CL30-dPTM′ (antibody, human IgG1, V domains shown)
VH: EVQLVESGGGLIQPGGSLRLSCAASGFTVSRIYMSWVRQAPGKGLEWVSVIYSGGSIYYADSVKGRFTISRDSSKNTVYLQMNSLRAEDTAVYYCARAVPHAPSNFDKWGQGTLVTVSS
notes: HCAb variant with PTM removal
